This passage reports Kd, koff and kon results from patent publication US20240400686A1.

The target of the assay is Human CD3εδ (human) (UniProt P07766). As to the kind of experiment: SPR, sensorgrams at 10-300 nM; set-up not given. Background: SPR reads the build-up and loss of mass on a sensor chip optically.

B1: humanized 26H8 Fab (Fab, V domains shown)
VH: QVQLQESGPGLVKPSETLSLTCTASGYTFTNYYIHWVRQSPGKGLEWIGWIYCGDGSTKFNEQFKDRTTLSADHSKTQASLKLSSVTAADTAIYFCARDWAGSYFFDFWGQGTMVTVSS
VL: DIQMTQSPSSLSASVGDRVTITCKSSQSLLNSRTRKNYLAWYQQKPGKAPKLLIYWASTRESGVPSRFSGSGSGTDFTFTISSLQPEDIATYYCKQSYILRTFGGGTKVEIKR
For the molecule B1, the Kd (usually the concentration at which binding is half-saturated) amounted to 49 nM; the koff (as a rule, a measure of how fast the partners let go of each other) came out at 0.015 s⁻¹; the association rate constant (kon) – broadly, a measure of how fast the partners come together – worked out at 300000 M⁻¹ s⁻¹.
